We go through 22 molecules from patent publication US20240272170A1 (QUANTUM SI, published 2024).

The target in test [1] is T1, RA peptide (Octet assay of PS621 variants).
T1 construct: X… with X = R
Kind of test: Octet (BLI), 30 C. The text has this: (§1) Peptides of the sequence RXKLDEESILKQK (SEQ ID NO: 1076) were also used to evaluate the penultimate residue effect.
For orientation: Biolayer interferometry detects binding as a change in optical thickness at a sensor tip.

Test [2] addresses T2, RL peptide (Octet assay of PS621 variants).
T2 construct: RXKLDEESILKQK with X = L
T2 peptide: RLKLDEESILKQK
The test is described as follows: Octet (BLI), 30 C.
Source text: as §1

Test [3] deals with T3, HA peptide (Octet assay of PS621 variants).
T3 construct: XAKLDEESILKQK with X = H
T3 peptide: HAKLDEESILKQK
The test is described as follows: Octet (BLI), 30 C.

Test [4] deals with T4, KA peptide (Octet assay of PS621 variants).
T4 construct: XAKLDEESILKQK with X = K
T4 peptide: KAKLDEESILKQK
Kind of test: Octet (BLI), 30 C.

Test [5] deals with T5, VA peptide.
T5 construct: The peptide was coated on the Octet sensor; also called peptide with N-terminal valine and penultimate alanine
The test is described as follows: BLI (Octet), peptide on sensor, purified protein in solution. The text has this:
(§2) In the high-throughput assay, Octet sensors are coated with the peptide of interest and dipped in buffer containing the purified protein. An approximation of relative binding can be obtained by comparing the response after 200 seconds for each protein. Each protein has approximately the same molecular mass and is used at the same concentration, so ranking the proteins by response level in this assay gives an approximation of which proteins have improved binding. Studying the on and off-rate can also give insight into the mechanism of binding.

The target of test [6] is T6, AA peptide.
T6 construct: The peptide was coated on the Octet sensor; also called peptide with N-terminal alanine and penultimate alanine
The description is as above.
Source text: as §2

The target of test [7] is T7, LA peptide.
T7 construct: The peptide was coated on the Octet sensor; also called peptide with N-terminal leucine and penultimate alanine
Described as above.
Source text: as §2

B1: PS1106 (designed binder)
chain: MHSKFSHAGRICGAKFKVGEPIYRCKECSFDDTCVLCVNCFNPKDHTGHHVYVTICTEFNNGICDCGDKEAWNHTLFCKAEEG
notes: Variant of PS621
B1: the Octet response in test [1] stood at 7.6; in test [2], 9; in test [3], 0.6; in test [4] it was 4.7.

B2: PS1109 (designed binder)
chain: MHSKFSHAGRICGAKFKVGEPIYRCKECSFDDTCVLCVNCFNPKDHTGHHVYTTICTEFNKGICDCGDKEAWNHTLFCKAEEG
notes: Variant of PS621
For B2, the Octet response amounted to 8.2 in test [1], 10.5 in test [2], 0.6 in test [3] and 4.7 in test [4].

B3: PS1108 (designed binder)
chain: MHSKFSHAGRICGAKFKVGEPIYRCKECSFDDTCVLCVNCFNPKDHTGHHVYTTICTERNNGICDCGDKEAWNHTLFCKAEEG
notes: Variant of PS621
Consider B3, for which the Octet response in test [1] is 8.2; in test [2], 10.3; in test [3], 1.2; in test [4], 5.

B4: PS1110 (designed binder)
chain: MHSKFSHAGRICGAKFKVGEPIYRCKECSFDDTCVLCVNCFNPKDHTGHHVYTTICTEFNNGECDCGDKEAWNHTLFCKAEEG
notes: Variant of PS621
For the molecule B4, the Octet response stood at 7 in test [1], 9.8 in test [2], 2.4 in test [3] and 6.6 in test [4].

B5: PS1112 (designed binder)
chain: MHSKFSHAGRICGAKFKVGEPIYRCKECSFDDTCVLCVNCFNPKDHTGHHVYTTICTEFNNGICDCGDKTAWNHTLFCKAEEG
notes: Variant of PS621
For B5, the Octet response is 8.6 in test [1], 9.9 in test [2] and 2.3 in test [4].

B6: PS1121 (designed binder)
chain: MHSKFSHAGRICGAKFKVGEPIYRCKECSFDDTCVLCVNCFNPKDHKGHHVYTTICTEFNNGICDCGDKEAWNHTLFCKAEEG
notes: Variant of PS621
As for B6, the Octet response in test [1] is 9.5; in test [2] it was 10.6; in test [3], 2.2; in test [4], 5.4.

B7: PS1117 (designed binder)
chain: MHSKFSHAGRICGAKFKVGEPIYRCKECSFDDTCVLCVNCFNPKDHLGHHVYTTICTEFNNGICDCGDKEAWNHTLFCKAEEG
notes: Variant of PS621
For B7, the Octet response in test [1] was 8.6; in test [2], 9; in test [3], 0.5; in test [4], 3.5.

B8: PS1111 (designed binder)
chain: MHSKFSHAGRICGAKFKVGEPIYRCKECSFDDTCVLCVNCFNPKDHTGHHVYTTICTEFNNGICDCGDKSAWNHTLFCKAEEG
notes: Variant of PS621
On to B8, for which the Octet response in test [1] turned out to be 7.9; in test [2] it was 10; in test [4], 2.7.

B9: PS1114 (designed binder)
chain: MHSKFSHAGRICGAKFKVGEPIYRCKECSFDDTCVLCVNCFNPKDHRGHHVYTTICTERNNGICDCGDKEAWNHTLFCKAEEG
notes: Variant of PS621
On to B9, for which the Octet response in test [1] stood at 9.2; in test [2], 9.7; in test [3], 1.2; in test [4], 5.3.

B10: PS1122 (designed binder)
chain: MHSKFSHAGRICGAKFKVGEPIYRCKECSFDDTCVLCVNCFNPKDHLGHHVYTTICTEFNNGECDCGDKTAWNHTLFCKAEEG
notes: Variant of PS621 (T47L, I63E, E70T)
As to B10, the Octet response in test [1] was found to be 9.9; in test [2], 11.2; in test [3] it was 1.3; in test [4] it was 4.6.

B11: PS1116 (designed binder)
chain: MHSKFSHAGRICGAKFKVGEPIYRCKECSFDDTCVLCVNCFNPKDHTYHHVYTTICTEFNNGICDCGDKEAWNHTLFCKAEEG
notes: Variant of PS621
Take B11: the Octet response worked out at 7.1 in test [1], 8.5 in test [2] and 1.2 in test [4].

B12: PS1113 (designed binder)
chain: MHSKFSHAGRICGAKFKVGEPIYRCKECSFDDTCVLCVNCFNPKDHTGHHVYTTICTEFNNGICDCGDKEAWNKTLFCKAEEG
notes: Variant of PS621
Regarding B12, the Octet response in test [1] turned out to be 7.7; in test [2], 9.3; in test [3], 0.2; in test [4], 3.8.

B13: PS557 (other)
chain: MPTAASATESAIEDTPAPARPEVDGRTKPKRQPRYHVVLWNDDDHTYQYVVVMLQSLFGHPPERGYRLAKEVDTQGRVIVLTTTREHAELKRDQIHAFGYDRLLARSKGSMKASIEAEE
notes: Natural parent ClpS protein, expressed in E. coli and purified; also called WT; wild-type protein
As to B13, the “Octet response after 200 sec association” value in test [5] was 5.9 nm; in test [6], 0.01 nm; in test [7], 9.8 nm.

B14: PS796 (designed binder)
chain: MPTAASATESAIEDTPAPARPEVDGRTKPKRQPRYHVVLWDDDDHTYQYVVVMLQSLFGHPPERGYRLAKEMDTQGRVIVLTTTREHAELKRDQIHAFGYDRLLARSKGSMKASIEAEE
notes: also called N41D, V72M
On to B14, for which the results for the “Octet response after 200 sec association” value in test [5], in test [6] and in test [7] were 11.3 nm, 3.5 nm and 11.9 nm, respectively.

B15: PS824 (designed binder)
chain: MPTAASATESAFEDTPAPARPEVDGRTKPKRQPRYHVVLWDDDDHTYQYVVVMLRSLFGHPPERGYRLAKEMDTQGRVIVLTTTREHAELKRDQIHAFGYDRLLARSKGSMKASIEAEE
notes: Variant of PS557
Take B15: the results for the “Octet response after 200 sec association” value in test [5], in test [6] and in test [7] were 13.3 nm, 3.9 nm and 13.8 nm, respectively.

B16: PS797 (designed binder)
chain: MPTAASATESAIEDTPAPARPEVDGRTKPKRQPRYHVVLWDDDDHTYQYVVVMLQSLFGHPPERGYRLAKEMDTLGRVIVLTTTREHAELKRDQIHAFGYDRLLARSKGSMKASIEAEE
notes: Variant of PS557; also called N41D, V72M, Q75L
On to B16, for which the “Octet response after 200 sec association” value in test [5] turned out to be 11.2 nm; in test [6], 3.2 nm; in test [7], 12 nm.

B17: PS838 (designed binder)
chain: MPTAASATESAIEDTPAPARPEVDGRTKPKRQPRYHVVLWDDDDHTYQYVVVMLQSLFGHPRERGYRLAKEMDTQGRVIVLTTTREHAELKRDQIHAFGYDRLLARSKGSMKASIEAEE
notes: Variant of PS557; also called V72M, N41D, P62R
For the molecule B17, the “Octet response after 200 sec association” value in test [5] stood at 11.6 nm; in test [6], 3 nm; in test [7], 13.4 nm.

B18: PS798 (designed binder)
chain: MPTAASATESAIEDTPAPARPEVDGRTKPKRQPRYHVVLWNDDDHTYQYVVVMLQSLFGHPPERGYRLAKEMDTLGRVIVLTTTREHAELKRDQIHAFGYDRLLARSKGSMKASIEAEE
notes: Variant of PS557; also called V72M, Q75L
In the case of B18, the “Octet response after 200 sec association” value was 12.9 nm in test [5], 3.8 nm in test [6] and 13.9 nm in test [7].

B19: PS852 (designed binder)
chain: MPTAASATESAIEDTPAPARPEVDGRTKPKHQPRYHVVLWDDDDHTYQYVVVMLRSLFGHPPERGYRLAKEMDTQGRVIVLTTTREHAELKRDQIHAFGYDRLLARSKGSMKASIEAEE
notes: Variant of PS557
Turning to B19, the figures for the “Octet response after 200 sec association” value in test [5], in test [6] and in test [7] were 8.3 nm, 1.7 nm and 9.7 nm, respectively.

B20: PS831 (designed binder)
chain: MPTAASATESAIEDTPAPARPEVDGRTKPKRQPRYHVVLWNDDDHTYQYVVVMLQSLFGHPRKRGYRLAKEMDTLGRVIVLTTTREHAELKRDQIHAFGYDRLLARSKGSMKASIEAEE
notes: Variant of PS557
As to B20, the “Octet response after 200 sec association” value was 11 nm in test [5], 1.4 nm in test [6] and 12.2 nm in test [7].

B21: PS801/PS814 (designed binder)
chain: MPTAASATESAIEDTPAPARPEVDGRTKPKRQPRYHVVLWNDDDHTYQYVVVMLQSLFGHPPKRGYRLAKEVDTQGRVIVLTTTREHAELKRDQIHAFGYDRLLARSKGSMKASIEAEE
notes: also called E63K
Turning to B21, the “Octet response after 200 sec association” value turned out to be 5.73 nm in test [5], 0.0017 nm in test [6] and 10.7 nm in test [7].

B22: PS808 (designed binder)
chain: MPTAASATESAIEDTPAPARPEVDGRTKPKRQPRYHVVLWNDDDHTYQYVVVMLRSLFGHPPERGYRLAKEVDTQGRVIVLTTTREHAELKRDQIHAFGYDRLLARSKGSMKASIEAEE
notes: Variant of PS557; also called Q55R
For the molecule B22, the “Octet response after 200 sec association” value is 5.71 nm in test [5], 0.0027 nm in test [6] and 10.4 nm in test [7].
